From paper PMC4346919 (2015)

B1: biotin-labeled ALG-2 [modified: biotin-labeled; biotin-labeled] [human] / GST-SGG-linker-8xHis fused with the eight-residue Sec31A peptide (NPPPPGFI), wild type [human] (parent complex)
chain 1: MAAYSYRPGPGAGPGPAAGAALPDQSFLWNVFQRVDKDRSGVISDTELQQALSNGTWTPFNPVTVRSIISMFDRENKAGVNFSEFTGVWKYITDWQNVFRTYDRDNSGMIDKNELKQALSGFGYRLSDQFHDILIRKFDRQGRGQIAFDDFIQGCIVLQRLTDIFRRYDTDQDGWIQVSYEQYLSMVFSIV
chain 2: NPPPPGFI

Variants of: B1
Experiment: far-Western blot (FW), signal intensity measured with ImageJ; n = 4; read off a plot

chain 2 P5L was tested. Which percent of parent did it give?
The percent of parent was ~55 % of WT.

Which percent of parent does the source give for chain 2 P4A here?
The percent of parent was ~42 % of WT.

chain 2 I8G was tested. Which percent of parent did it give?
Its percent of parent is ~9 % of WT.

chain 2 N1P was tested. Which percent of parent did it give?
Its percent of parent is ~100 % of WT.
